Results on 18 sequences are retold here after the DeepSol protein solubility set.

A short description of the series: soluble on expression in E. coli; label from the status in PepcDB or PDB records.
In the case of “MGPLLVWHRGDLRLHDHPALLEALARGPVVGLVVLDPNNLKTTPRRRAWFLENVRALREAYRARGGALWVLEGLPWEKVPEAARRLKAKAVYALTSHTPYGRYRDGRVREALPVPLHLLPAPHLLPPDLPRAYRVYTPFSRLYRGAAPPLPPPEALPKGPEEGEIPREDPGLPLPEPGEEAALAGLRAFLEAKLPRYAEERDRLDGEGGSRLSPYFALGVLSPRLAAWEAERRGGEGARKWVAELLWRDFSYHLLYHFPWMAERPLDPRFQAFPWQEDEALFQAWYEGKTGVPLVDAAMRELHATGFLSNRARMNAAQFAVKHLLLPWKRCEEAFRHLLLDGDRAVNLQGWQWAGGLGVDAAPYFRVFNPVLQGERHDPEGRWLKRWAPEYPSYAPKDPVVDLEEARRRYLRLARDLARG”, the “soluble on expression in E. coli” value is recorded as “soluble”. Regarding “MGPRFQPDDTLYKRRNTLKVEYVPDDIVGRDNEIEEYEAALQPIINGEYPDNIFIYGKTGVGKTAVTNFLLNELRESADHFEVDLTVISLNCDGLSTSYQAAISLVNNLRGHENHIAETGHPQSKVYRLLWNELNKLSGSVIIVLDEIDHITDDTFLYQITRADNNGYIDNIQLGVIGISNDSTFREQLDAKVQSSLCETEISFPPYGTEELQKVLEQRAEIAFHESALEDGVIPLCAALGRQDGGDARRAITLLRKAGDLARTENANSVTTDHVERAQEKLEAQQSMDIMRDLTEHEQLTLYALTTLAAEGETPARSRIVYQRYKELCEFQGREPRTARRMRSFLSDFEILNLTLSEMEHRGQDGGTYRQHELNRDIATVVDALQTIIGEFGAHQSIIEYLPDSGEEFATM”, the “soluble on expression in E. coli” value is given as “not soluble”. As to “MGQGQTKSEQKLSEQTLRKFYDAQLENQLIAENLKWAQQRAVDLLKVRDQLQWEVLAAATTTVVLLAAGSIYKRKDVIIPIVPLIMGCGYQYDVAHGDNRQLVRETAVELLKTPEELHMLPAITLRDIDEFRDSHKL”, the “soluble on expression in E. coli” value was “not soluble”. As to “MGQIIVSMYLSLDGVMEEPAWTAPYFNEEVAKFQSDLLFESEALLLGRVTYQGFAAAWPSMTDEEGFADKMNSIPKFVASTTLEKTEWNANLIKGNIVEEISKLKEQPGQNLLIYGSGELIQTLMQHDLIDEYHFMVNPVIVGSGKHLFKTGNDTKALKLIETRTTSSGVVILSYQPEKKE”, the “soluble on expression in E. coli” value is listed as “not soluble”. As for “MGQSLPLHLLKYPSKFSINIYAAPVSDAREMALGSKDIVFVGSRSAGKVYAVIPDKKNSHGTRVLTIASGLNMPNGVAFHKGALYVAEIGRILRFDNIESNLNNPPEPVVVTTKLPKEKAHGWRFISFGPDDKLYIGIGAPCNVCLMEDPRYATIMRMNTYGQDLEIYARGIRNTVGFDWDPLHHNLWFTDNGRDWLGDNLPPDELNVAPRKGMDFGFPYCYGKSTVDPVYGKIHSCSEFTPAVFEFPAHVAPLGMSFYTGKLFPSNYWGQIFISEHGSWNRSHKIGYQVTTVKIKNNHVTEVKPFISGWLQGEKAWGRPVDTLVMPDGSLLISDDYANVIYRVSYQLEHHHHHH”, the entry is “not soluble”; as for “MGRAELLEGKMSTQDPSDLWSRSDGEAELLQDLGWYHGNLTRHAAEALLLSNGCDGSYLLRDSNETTGLYSLSVRAKDSVKHFHVEYTGYSFKFGFNEFSSLKDFVKHFANQPLIGSETGTLMVLKHPYPRKVEEPSIYESVRVHTAMQTGRTEDDLVPTAPSLGTKEGYLTKQGGLVKTWKTRWFTLHRNELKYFKDQMSPEPIRILDLTECSAVQFDYSQERVNCFCLVFPFRTFYLCAKTGVEADEWIKILRWKLSQIRKQLNQGEGTIRSRSFIFK”, “soluble”. Take “MGRARDAILDALENLTAEELKKFKLQAATHQGSGAAPAGIQAPPQSAAKPGLHFIDQHRAALIARVTNVEWLLDALYGKVLTDEQYQAVRAEPTNPSKMRKLFSFTPAWNWTCKDLLLQALRESQSYLVEDLERS”: the “soluble on expression in E. coli” value is on record as “soluble”. Take “MGRKKKKVDKPWCWYCNREFDDEKILIQHQKAKHFKCHICHKKLFSGPGLSIHCMQVHKETIDKIPAAVHGRDNIHVEIYGMQGIPSGAYRGAADEEPDEKRSRMDNGPPMPTPMPFPQHFPFPGMPPMPSGPPPPSMAYGMPPMPSGMMPPRGMPGAYPPPRGYPPAPAPGVYMPPPGMPGAYPPPRMPIGHGPPGGPPMPGPPQRSRFDQPDGGDRWGPPMRGVPRTPPYENEHEHQDYQAPDDYNQGGYDDRFREGDRGGPPGGSRFDQVKAELKEEIVEPNNGPPTTSSGAAAASAAAVVASKLGSRTRIVYPDDHSLSLEERRVKMLFEKRSNPYH”: the “soluble on expression in E. coli” value is “soluble”. Turning to “MGSCMKWDYGEMEDFSVSASGLFITNEGNFQYSNATLSYYDPATCEVENEVFYRANGFKLGDVAQSMVIRDGIGWIVVNNSHVIFAIDINTFKEVGRITGFTSPRYIHFLSDEKAYVTQIWDYRIFIINPKTYEITGYIECPDMDMESGSTEQMVQYGKYVYVNCWSYQNRILKIDTETDKVVDELTIGIQPTSLVMDKYNKMWTITDGGYEGSPYGYEAPSLYRIDAETFTVEKQFKFKLGDWPSEVQLNGTRDTLYWINNDIWRMPVEADRVPVRPFLEFRDTKYYGLTVNPNNGEVYVADAIDYQQQGIVYRYSPQGKLIDEFYVGIIPGAFCWKLEHHHHHH”, the “soluble on expression in E. coli” value is recorded as “not soluble”. As for “MGSDKIHHHHHHAATYQVKKLMGFRHPTSYYAKSAKSGYLWNKSHTKRLHNLKNYPKTTWYATAKYSMKSVRNSGTYLKVTNGTGKAKGYVWTGYLKKGVNPANPNGTLTDPFGAAMSTYNVDDNLNKQLLNLFPGTIPDEPLQLAADFIFANAGANPDDYTSVIEELVGAENEPSVFRLSSDKRIQKNQNFLSFQRNSLKEELVTKHKKFTSFKGYRIGAYAFPKHDKRYGESMILLLPSN”, the “soluble on expression in E. coli” value is listed as “not soluble”. In the case of “MGSDKIHHHHHHACTDDSNDVVATTSEVIEQAEVPFSVVLKAMNSDGNDITTKGEVNGATLFVFDQNNDFFEQINVNKSTILSRRAIDINCPNSNDITVIAWSGINSGNEEISNMSKANIISDLQVSLKENNGIANIPSDLFYGQVTLHKNSSTKSTVSNELQIIRKTSIFQLSTKGLIKYLGSNAGNFEYRIKNTKSSLDYNGNPTGEEVEFAFPASFDEKGNLTTETQAIFPAQNITVELYKDGNLIFSSEKDKNGELFAATPGKRTEITFKYSGEVSANITIADWATVIQHITMN”, the “soluble on expression in E. coli” value was “not soluble”. As for “MGSDKIHHHHHHACTGLLVGKKASTDGSVMISYAADSHSLYGEMYRWPAATWPKGAMLEVKEWDTGKPLGKIAQVENTYSVVGNMNEHQVAITESTFGGRHELVDTTGIMDYGSLIYIALQRSKSAREAIKVMTDLVKEYGYYSSGETFSIADKNEAWVMEMIGKGPGNKGAVWVAIRIPDDCISAHANQSRIQQIPFDDKENCIYSPDVVSFAREKGYFKGKDADFSFAKAYCPYDFSALRGCEARVWSFFRKYDTTMDQYTDFIKGDPSKEPMPLYVKPNRKLSVQDVQNGMRDHYEGTDLDMTKDAGAGSYKVPYRWRPMTFEVDGQEYTNERAIATQQTGFVIVPQMRNWLPDAIGGILWFAVDDADMAVFTPVYASVTDVPECYRVGNGDLLNFSWTSAFWIHNWVANMAYHKYSFMIQDIRKVQQELENGYQETVPAIDKAAQELYAKDPAETVKFLTWYSTTNSDSATARWKQLGEYLLVKYIDGNVKKEVNGQFKRNPYGQPASPDFPGYDEDYYRSIVKSAGDRLKVK”, the entry is “not soluble”; as for “MGSDKIHHHHHHADSPDAFVPPTRLTRIAFDRRSAAFGQLDFLLGEIGRRMQERMEVVRLTPQRALDIGCGHGQGLAGLRARFPDAQIAGLDISGVMLAEAGQRDPQRRPGWVGRLLGKRPLFDLVQGDLATLPFAPGSFDLLWSNLALHWHPEPHRVFPEWHRVTRDDGLVMFSLFGPDTLRELRTAFEEVDTATHTLRFVDMHDIGDMLVHGGWSTPVMDMETLTVTYESPEMLLREVQAFGGLRAHPALRRAGLHGRRWHQAVCAALERLRNADGVIPLTFEIVYGHAWKLPPRGAQQVDELGRAVVPLDKIGRARPRR”, “not soluble”. With “MGSDKIHHHHHHAEAPLRPDQAAFRDLYREMVETDTSITTGSCTLLADRIEARLRGAGFADGQIHRFAVPEFPKEGGIVAILPGTSAKARPILLLGHLDVVVAKREDWTRDPYRLIEEGGYFYGRGVADMKAMDAIWVDMLMRFRKEGRKPRRTIKLALTCGEETSTAFNGAKWLAENRRDLIDAEFALNEGGSGRTDKPLEEGGRVVLQTIHVGEKTPVNYRVEATNPGGHSSMPVRDNAIYELSDALVRLRDYEFPVMLNDTTRAFFAKAGAARGDAMGKAMVAVSADPADKAAVALLDTDRSFHSMLRTTCVATLLDGGHANNALPQRAGANVNCRIFPGVTAEEVRGTLETVVADPRMTVVRTDNRGPDAKAPPLDPKIVGPAEKLVAKYYPGVPMVPMMSTGATDGVFLGAVGIPSYGPPGLFGNPDGNGVHGLNERISVQAVYAGRDLLTELVTAYAF”, the “soluble on expression in E. coli” value was “not soluble”. For the sequence “MGSDKIHHHHHHAQRVITASGKYITKNIKVTRFDQIYLKGSPTIEYTQSPGASKVQIAGSDNLVDLVECRVEGSTLIVNMKSRTNISYGKEGRLKILVSSPMLKSASLQGSGDIHLGSLKVEGLDVSLTGSGDIVAENITCNSDFSALLKGSGDIDVKGQLRAKSVNLNLQGSGDLKVAGVTGSEISAMLQGSGDLKVGSTNITSTVMAKLSGSGDMDVLDIRANSVSGQLDGSGDMTLSGSACNATLVLNRSGELSARKLDAENVTAHVNGSGEISCTATKTLETNIQGSGEISYKGNPSIRSTGKNHLNRL”, the “soluble on expression in E. coli” value is “not soluble”.

In the case of “MGSDKIHHHHHHATASESSKYIGLQLYSLRDLVKEEGIQKVLETAAKMGYKNLETASYDNGKIYGLAPAEFKKMVNDLGMKCTSAHLGQAFTKEKEAEVMSWWDQAIDAHNELGVKYMVQPWMPVNDKTTLDDLKMYCDYFNTVGYKTAAASIAFGYHNHDFEFRKIDDQLIYDFLLDNVSPNHVFFEMDVYWVMMGGGDPVAYLKNRPSQFKAIHIKDEKEIGASGKMNFKPIFDQMYANNVKDWYVEVEQYTNNDPVASVQQSYDFLNKADYVK”, the “soluble on expression in E. coli” value is “not soluble”. As to “MGSDKIHHHHHHCRDELSTAGGKWVESSLRTIQTDTCTVRLSTILSDSLATSGDTVCQIGTIDDPVWGKIKAAFYAEYDVPTVSFSENADYRFDSITIRFYSSGNYLGDTLSPQRISLHSLSENLSLDEGYLYTTSKVSYHSTPLASFTFTPTPGETIREHEIRLPDEWGVEWFEHFQAGSREMESQEYFRDYFKGIAFIPEEGGNCVNGFMVNDSSLCITLYYHQTETDATELSADFLPNSDLRFNQVSCDRSRTALSSLQSGLNNGLPSEKSEHQSYLQGLTGMYINIDFPFLNDLRAEGRLVTIESALLRLYPVKGTYGKQYPLPESLTLYTADENNVTEDVVTDISGSSVQTGSLVTDEMMGEDTYYSFDITSFLQSNLGTVGYNRKILQLMLPDNLFFTTLNGVVFGDARHPDSNPVKLTLLYKTYNP”, the “soluble on expression in E. coli” value is “not soluble”. As for “MGSDKIHHHHHHDYKLVIFASFNGKAYSDNPRYLFEYLRDHEEFASYHFVWAFKVKRSVNRAKVVKFNSFSYYYLLSKAKYWVFNSKMAPYYHKKGEQVYLQTWHGTPLKRLGHDILDNGITYYRSRLSYQQMLRSYDEDSRHWDYLISPNPFSSQAFTSAFNLDRGKLLEVGYPRVDFLVNADSNKCMELKRRYGLPLDKKVVLYAPTWRDDSFGIRGYRFELAVDFYKWKNQLGDDTVILFKPHYLISNVYQIPNDLSNFVYLMAASADINDAYLMSDVLITDYSSVFFDYANLNRPIYFYMYDFEQYEQELRGFYLNVPDELPNDVIRTEKELLRRIKEDIFDYDRLQVFNQVFNSWNDGKVSSKVAKRIFYEN”, the entry is “not soluble”.
